Test results reported in patent US20180155451A1 (published 2018).

T1: FcγRIIb (human, UniProt P31994 43-217)
T1 construct: extracellular domain; for crystallography expressed with Kifunesine and trimmed with Endo F1; also called FcgRIIb; FcgR2b; not shown: His tag attached to the C terminus
T1 sequence (looked up): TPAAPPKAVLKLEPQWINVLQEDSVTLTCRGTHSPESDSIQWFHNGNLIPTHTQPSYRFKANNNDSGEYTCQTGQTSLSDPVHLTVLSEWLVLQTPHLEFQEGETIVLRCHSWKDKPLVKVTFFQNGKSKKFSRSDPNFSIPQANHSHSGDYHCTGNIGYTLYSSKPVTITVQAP

B1: GpH7-A26/GpH7-B3/GpL16-k0 (antibody, human IgG1, kappa)
heavy 1: QVQLVQSGAEVKKPGASVTVSCKASGYTFTDYEMHWIRQPPGEGLEWIGAIDPKTGDTAYSESFQDRVTLTADKSTSTAYMELSSLTSEDTAVYYCTRFYSYTYWGQGTLVTVSSASTKGPSVFPLAPSSKSTSGGTAALGCLVKDYFPEPVTVSWNSGALTSGVHTFPAVLQSSGLYSLSSVVTVPSSSLGTQTYICNVNHKPSNTKVDKKVEPKSCDKTHTCPPCPAPELLGAPSVFLFPPKPKDTLMISRTPEVTCVVVDVSHEDPEVKFNWYVDGVEVHNAKTKPREEQYNSTYRVVSVLTVLHQDWLNGKEYKCKVSNKALPAPIEKTISKAKGQPREPQVYTLPPSRKELTKNQVSLTCLVKGFYPSDIAVEWESNGQPENNYKTTPPVLDSDGSFFLYSKLTVDKSRWQQGNVFSCSVMHEALHNRYTQKSLSLSP
heavy 2: not shown
light: DIVMTQSPLSLPVTPGEPASISCQASESLVHSNRNTYLHWYLQKPGQSPQLLIYKVSNRFSGVPDRFSGSGSGTDFTLKISRVEAEDVGVYYCSQNTHVPPTFGQGTKVEIERTVAAPSVFIFPPSDEQLKSGTASVVCLLNNFYPREAKVQWKVDNALQSGNSQESVTEQDSKDSTYSLSSTLTLSKADYEKHKVYACEVTHQGLSSPVTKSFNRGEC
notes: G237A in one H chain
B2: GpH7-A26/GpL16-k0 (antibody, human IgG1, kappa)
heavy: QVQLVQSGAEVKKPGASVTVSCKASGYTFTDYEMHWIRQPPGEGLEWIGAIDPKTGDTAYSESFQDRVTLTADKSTSTAYMELSSLTSEDTAVYYCTRFYSYTYWGQGTLVTVSSASTKGPSVFPLAPSSKSTSGGTAALGCLVKDYFPEPVTVSWNSGALTSGVHTFPAVLQSSGLYSLSSVVTVPSSSLGTQTYICNVNHKPSNTKVDKKVEPKSCDKTHTCPPCPAPELLGAPSVFLFPPKPKDTLMISRTPEVTCVVVDVSHEDPEVKFNWYVDGVEVHNAKTKPREEQYNSTYRVVSVLTVLHQDWLNGKEYKCKVSNKALPAPIEKTISKAKGQPREPQVYTLPPSRKELTKNQVSLTCLVKGFYPSDIAVEWESNGQPENNYKTTPPVLDSDGSFFLYSKLTVDKSRWQQGNVFSCSVMHEALHNRYTQKSLSLSP
light: DIVMTQSPLSLPVTPGEPASISCQASESLVHSNRNTYLHWYLQKPGQSPQLLIYKVSNRFSGVPDRFSGSGSGTDFTLKISRVEAEDVGVYYCSQNTHVPPTFGQGTKVEIERTVAAPSVFIFPPSDEQLKSGTASVVCLLNNFYPREAKVQWKVDNALQSGNSQESVTEQDSKDSTYSLSSTLTLSKADYEKHKVYACEVTHQGLSSPVTKSFNRGEC
notes: G237A in both H chains
B3: GpH7-A42/GpL16-k0 (antibody, human IgG1, kappa)
heavy: QVQLVQSGAEVKKPGASVTVSCKASGYTFTDYEMHWIRQPPGEGLEWIGAIDPKTGDTAYSESFQDRVTLTADKSTSTAYMELSSLTSEDTAVYYCTRFYSYTYWGQGTLVTVSSASTKGPSVFPLAPSSKSTSGGTAALGCLVKDYFPEPVTVSWNSGALTSGVHTFPAVLQSSGLYSLSSVVTVPSSSLGTQTYICNVNHKPSNTKVDKKVEPKSCDKTHTCPPCPAPELLGGPSVFLFPPKPKDTLMISRTPEVTCVVVDVSHEDPEVKFNWYVDGVEVHNAKTKPREEQYNSTYRVVSVLTVLHQDWLNGKEYKCKVSNKAEPAPIEKTISKAKGQPREPQVYTLPPSRKELTKNQVSLTCLVKGFYPSDIAVEWESNGQPENNYKTTPPVLDSDGSFFLYSKLTVDKSRWQQGNVFSCSVMHEALHNRYTQKSLSLSP
light: DIVMTQSPLSLPVTPGEPASISCQASESLVHSNRNTYLHWYLQKPGQSPQLLIYKVSNRFSGVPDRFSGSGSGTDFTLKISRVEAEDVGVYYCSQNTHVPPTFGQGTKVEIERTVAAPSVFIFPPSDEQLKSGTASVVCLLNNFYPREAKVQWKVDNALQSGNSQESVTEQDSKDSTYSLSSTLTLSKADYEKHKVYACEVTHQGLSSPVTKSFNRGEC
notes: L328E in both H chains
B4: GpH7-A42/GpH7-B3/GpL16-k0 (antibody, human IgG1, kappa)
heavy 1: QVQLVQSGAEVKKPGASVTVSCKASGYTFTDYEMHWIRQPPGEGLEWIGAIDPKTGDTAYSESFQDRVTLTADKSTSTAYMELSSLTSEDTAVYYCTRFYSYTYWGQGTLVTVSSASTKGPSVFPLAPSSKSTSGGTAALGCLVKDYFPEPVTVSWNSGALTSGVHTFPAVLQSSGLYSLSSVVTVPSSSLGTQTYICNVNHKPSNTKVDKKVEPKSCDKTHTCPPCPAPELLGGPSVFLFPPKPKDTLMISRTPEVTCVVVDVSHEDPEVKFNWYVDGVEVHNAKTKPREEQYNSTYRVVSVLTVLHQDWLNGKEYKCKVSNKAEPAPIEKTISKAKGQPREPQVYTLPPSRKELTKNQVSLTCLVKGFYPSDIAVEWESNGQPENNYKTTPPVLDSDGSFFLYSKLTVDKSRWQQGNVFSCSVMHEALHNRYTQKSLSLSP
heavy 2: not shown
light: DIVMTQSPLSLPVTPGEPASISCQASESLVHSNRNTYLHWYLQKPGQSPQLLIYKVSNRFSGVPDRFSGSGSGTDFTLKISRVEAEDVGVYYCSQNTHVPPTFGQGTKVEIERTVAAPSVFIFPPSDEQLKSGTASVVCLLNNFYPREAKVQWKVDNALQSGNSQESVTEQDSKDSTYSLSSTLTLSKADYEKHKVYACEVTHQGLSSPVTKSFNRGEC
notes: L328E in one H chain
B5: GpH7-A29/GpL16-k0 (antibody, human IgG1, kappa)
heavy: QVQLVQSGAEVKKPGASVTVSCKASGYTFTDYEMHWIRQPPGEGLEWIGAIDPKTGDTAYSESFQDRVTLTADKSTSTAYMELSSLTSEDTAVYYCTRFYSYTYWGQGTLVTVSSASTKGPSVFPLAPSSKSTSGGTAALGCLVKDYFPEPVTVSWNSGALTSGVHTFPAVLQSSGLYSLSSVVTVPSSSLGTQTYICNVNHKPSNTKVDKKVEPKSCDKTHTCPPCPAPELLGLPSVFLFPPKPKDTLMISRTPEVTCVVVDVSHEDPEVKFNWYVDGVEVHNAKTKPREEQYNSTYRVVSVLTVLHQDWLNGKEYKCKVSNKALPAPIEKTISKAKGQPREPQVYTLPPSRKELTKNQVSLTCLVKGFYPSDIAVEWESNGQPENNYKTTPPVLDSDGSFFLYSKLTVDKSRWQQGNVFSCSVMHEALHNRYTQKSLSLSP
light: DIVMTQSPLSLPVTPGEPASISCQASESLVHSNRNTYLHWYLQKPGQSPQLLIYKVSNRFSGVPDRFSGSGSGTDFTLKISRVEAEDVGVYYCSQNTHVPPTFGQGTKVEIERTVAAPSVFIFPPSDEQLKSGTASVVCLLNNFYPREAKVQWKVDNALQSGNSQESVTEQDSKDSTYSLSSTLTLSKADYEKHKVYACEVTHQGLSSPVTKSFNRGEC
notes: G237L in both H chains
B6: GpH7-A43/GpH7-B3/GpL16-k0 (antibody, human IgG1, kappa)
heavy 1: QVQLVQSGAEVKKPGASVTVSCKASGYTFTDYEMHWIRQPPGEGLEWIGAIDPKTGDTAYSESFQDRVTLTADKSTSTAYMELSSLTSEDTAVYYCTRFYSYTYWGQGTLVTVSSASTKGPSVFPLAPSSKSTSGGTAALGCLVKDYFPEPVTVSWNSGALTSGVHTFPAVLQSSGLYSLSSVVTVPSSSLGTQTYICNVNHKPSNTKVDKKVEPKSCDKTHTCPPCPAPELLGGPSVFLFPPKPKDTLMISRTPEVTCVVVDVSHEDPEVKFNWYVDGVEVHNAKTKPREEQYNSTYRVVSVLTVLHQDWLNGKEYKCKVSNKADPAPIEKTISKAKGQPREPQVYTLPPSRKELTKNQVSLTCLVKGFYPSDIAVEWESNGQPENNYKTTPPVLDSDGSFFLYSKLTVDKSRWQQGNVFSCSVMHEALHNRYTQKSLSLSP
heavy 2: not shown
light: DIVMTQSPLSLPVTPGEPASISCQASESLVHSNRNTYLHWYLQKPGQSPQLLIYKVSNRFSGVPDRFSGSGSGTDFTLKISRVEAEDVGVYYCSQNTHVPPTFGQGTKVEIERTVAAPSVFIFPPSDEQLKSGTASVVCLLNNFYPREAKVQWKVDNALQSGNSQESVTEQDSKDSTYSLSSTLTLSKADYEKHKVYACEVTHQGLSSPVTKSFNRGEC
notes: L328D in one H chain
B7: GpH7-A29/GpH7-B3/GpL16-k0 (antibody, human IgG1, kappa)
heavy 1: QVQLVQSGAEVKKPGASVTVSCKASGYTFTDYEMHWIRQPPGEGLEWIGAIDPKTGDTAYSESFQDRVTLTADKSTSTAYMELSSLTSEDTAVYYCTRFYSYTYWGQGTLVTVSSASTKGPSVFPLAPSSKSTSGGTAALGCLVKDYFPEPVTVSWNSGALTSGVHTFPAVLQSSGLYSLSSVVTVPSSSLGTQTYICNVNHKPSNTKVDKKVEPKSCDKTHTCPPCPAPELLGLPSVFLFPPKPKDTLMISRTPEVTCVVVDVSHEDPEVKFNWYVDGVEVHNAKTKPREEQYNSTYRVVSVLTVLHQDWLNGKEYKCKVSNKALPAPIEKTISKAKGQPREPQVYTLPPSRKELTKNQVSLTCLVKGFYPSDIAVEWESNGQPENNYKTTPPVLDSDGSFFLYSKLTVDKSRWQQGNVFSCSVMHEALHNRYTQKSLSLSP
heavy 2: not shown
light: DIVMTQSPLSLPVTPGEPASISCQASESLVHSNRNTYLHWYLQKPGQSPQLLIYKVSNRFSGVPDRFSGSGSGTDFTLKISRVEAEDVGVYYCSQNTHVPPTFGQGTKVEIERTVAAPSVFIFPPSDEQLKSGTASVVCLLNNFYPREAKVQWKVDNALQSGNSQESVTEQDSKDSTYSLSSTLTLSKADYEKHKVYACEVTHQGLSSPVTKSFNRGEC
notes: G237L in one H chain

The binders below were run against T1, FcγRIIb (assay: SPR (Biacore), relative binding).
Description: The constructed expression vectors were each combined with GpH7-A5 and GpL16-k0 to express heterodimerized antibodies, or they were combined with GpL16-k0 alone but not with other H chains to express homodimerized antibodies. These antibodies were expressed and purified according to the method described in Reference Example 1. The resulting purified antibodies are the following: the heterodimerized antibodies GpH7-A5/GpH7-B12/GpL16-k0, GpH7-A5/GpH7-B13/GpL16-k0, GpH7-A5/GpH7-B14/GpL16-k0, and GpH7-A5/GpH7-B15/GpL16-k0; and homodimerized antibodies GpH7-B12/GpL16-k0, GpH7-B13/GpL16-k0, GpH7-B14/GpL16-k0, and GpH7-B15/GpL16-k0. The prepared antibodies were used to assess the binding activity to each FcγR by the method described in Reference Example 2.
Analysis of interaction between objective antibody and the FcγR was carried out using Biacore T100 (GE Healthcare). HBS-EP+ (GE Healthcare) was used as the running buffer, and the measurement temperature was set to 25° C. Chips produced by immobilizing the antigen peptide by the amine coupling method to a Series S Sencor Chip CM5 (GE Healthcare), or alternatively, chips produced by allowing preliminarily biotinylated antigen peptides to interact with and immobilize onto a Series S Sensor Chip SA (certified) (GE Healthcare) were used. Antibodies of interest were captured onto an antigen peptide-immobilized chip, and allowed to interact to each FcγR diluted with running buffer. To regenerate and repeatedly use the chip, the antibodies captured on the chip were washed off by reacting 10 mM glycine-HCl, pH 1.5.

Binding result, binds:
B1
B2
B3
B4
B5
B6
B7
